Reference: patent US5843648

Key:
[1] = target: gp75 presented by HLA-A31 (COS cells transfected with gp75 plus HLA-A31) (human) (UniProt P17643)
[2] = target: MART-1 with HLA-A24 (COS-7 cells transfected with MART-1 + HLA-A24) (human) (UniProt Q16655)
[3] = target: gp100 with HLA-A24 (COS-7 cells transfected with gp100 + HLA-A24) (human) (UniProt P40967)
[4] = target: gp75 with HLA-A24 (COS-7 cells transfected with gp75 + HLA-A24) (human) (UniProt P17643)
[5] = target: tyrosinase presented by HLA-A24 (COS-7 cells transfected with tyrosinase + HLA-A24) (human)
[6] = target: p15 presented by HLA-A24 (293-A24 or COS-7 cells transfected with the p15 cDNA and HLA-A24) (human)
[7] = target: gp100 presented by HLA-A2 (COS cells transfected with gp100 plus HLA-A2) (human) (UniProt P40967)
[8] = target: MART-1 presented by HLA-A2 (COS cells transfected with MART-1 plus HLA-A2) (human) (UniProt Q16655)
[9] = target: Clone 1 (full length p15 RT-PCR product from 888 EBV B cells) presented by HLA-A24 on COS-7 cells (human)
[10] = target: Clone 2 (truncated p15 RT-PCR product from 888 EBV B cells) presented by HLA-A24 on COS-7 cells (human)
[11] = target: β-gal with HLA-A24 (COS-7 cells transfected with β-gal + HLA-A24) (human)
[12] = target: p15 10-18 peptide … presented by HLA-A24 on 888 EBV B cells (human)
[13] = target: p15 9-18 peptide … presented by HLA-A24 on 888 EBV B cells (human)
[14] = target: p15 10-18 peptide … presented by HLA-A24 on 888 EBV B cells (human); remark: listed apart in the source
[15] = target: p15 9-18 peptide … presented by HLA-A24 on 888 EBV B cells (human); remark: listed apart in the source
[16] = target: tyrosinase presented by HLA-A24 (COS-7 cells transfected with tyrosinase + HLA-A24) (human); remark: listed apart in the source
[17] = target: β-gal with HLA-A24 (COS-7 cells transfected with β-gal + HLA-A24) (human); remark: listed apart in the source
[18] = target: tyrosinase peptide T10166 (…) on HLA-A24+ 888 EBVB cells (human)
[19] = target: tyrosinase peptide T10180 (…) on HLA-A24+ 888 EBVB cells (human)
[20] = target: tyrosinase peptide T10199 (…) on HLA-A24+ 888 EBVB cells (human)
[21] = target: tyrosinase peptide T10206 (…) presented by HLA-A24 on 888 EBVB cells (human)
[22] = target: tyrosinase peptide T10209 (…) on HLA-A24+ 888 EBVB cells (human)
[23] = target: tyrosinase peptide T10213 (…) on HLA-A24+ 888 EBVB cells (human)
[24] = target: tyrosinase peptide T9177 (…) on HLA-A24+ 888 EBVB cells (human)
[25] = target: tyrosinase peptide T9180 (…) on HLA-A24+ 888 EBVB cells (human)
[26] = target: tyrosinase peptide T9181 (…) on HLA-A24+ 888 EBVB cells (human)
[27] = target: tyrosinase peptide T9199 (…) on HLA-A24+ 888 EBVB cells (human)
[28] = target: tyrosinase peptide T9206 (…) presented by HLA-A24 on 888 EBVB cells (human)

Substance: TIL 586 (cells without a defined receptor)
- GM-CSF [1]: 770 pg/mL

Substance: TIL 888 (cells without a defined receptor)
- GM-CSF [2]: 140 pg/mL
- GM-CSF [3]: 120 pg/mL
- GM-CSF [4]: 130 pg/mL
- GM-CSF [5]: 1500 pg/mL
- GM-CSF [6]: 60 pg/mL

Substance: TIL 1200 (cells without a defined receptor)
- GM-CSF [7]: 1500 pg/mL

Substance: TIL 1235 (cells without a defined receptor)
- GM-CSF [8]: 1800 pg/mL

Substance: TIL 1290 (cells without a defined receptor)
- GM-CSF [2]: 20 pg/mL
- GM-CSF [3]: 10 pg/mL
- GM-CSF [4]: 20 pg/mL
- GM-CSF [5]: 20 pg/mL
- GM-CSF [6]: 400 pg/mL
- GM-CSF (pg/ml), Expt. 1 and Expt. 2 [9]: 740 pg/mL
- GM-CSF (pg/ml), Expt. 1 and Expt. 2 [10]: 300 pg/mL
- GM-CSF (pg/ml), Expt. 1 and Expt. 2 [11]: 40 pg/mL
- GM-CSF (pg/ml) at 10 ug/ml peptide [12]: 910 pg/mL
- GM-CSF (pg/ml) at 10 ug/ml peptide [13]: 780 pg/mL
- minimum peptide concentration sensitizing 888 EBV B cells for lysis (51Cr release) [14]: 1 ng/mL
- minimum peptide concentration stimulating significant GM-CSF release [14]: 10 ng/mL
- minimum peptide concentration sensitizing 888 EBV B cells for lysis (51Cr release) [15]: 10 ng/mL
- minimum peptide concentration stimulating significant GM-CSF release [15]: 10 ng/mL

Substance: TIL 1413 (cells without a defined receptor)
- GM-CSF Secretion [16]: 292 pg/mL
- GM-CSF Secretion [17]: 30 pg/mL
- % Specific Lysis (E:T 40:1) and GM-CSF (pg/ml) (% specific lysis) [18]: -1
- % Specific Lysis (E:T 40:1) and GM-CSF (pg/ml) (% specific lysis) [19]: 1
- % Specific Lysis (E:T 40:1) and GM-CSF (pg/ml) (% specific lysis) [20]: 1
- % Specific Lysis (E:T 40:1) and GM-CSF (pg/ml) (% specific lysis) [21]: 20
- % Specific Lysis (E:T 40:1) and GM-CSF (pg/ml) (% specific lysis) [22]: 0
- % Specific Lysis (E:T 40:1) and GM-CSF (pg/ml) (% specific lysis) [23]: 1
- % Specific Lysis (E:T 40:1) and GM-CSF (pg/ml) (% specific lysis) [24]: 0
- % Specific Lysis (E:T 40:1) and GM-CSF (pg/ml) (% specific lysis) [25]: 2
- % Specific Lysis (E:T 40:1) and GM-CSF (pg/ml) (% specific lysis) [26]: -1
- % Specific Lysis (E:T 40:1) and GM-CSF (pg/ml) (% specific lysis) [27]: 0
- % specific lysis (E:T 40:1) (% specific lysis) [28]: 26
